Measurements as given in the supplement of paper PMC10724198.
± gives the standard deviation of the averaged measurements.

System: Saccharomyces cerevisiae
Assay: protein stability index of tFT-peptide fusion (C-terminal peptide) (PSI (0-1 scale)); higher = more stable (slower turnover)
Settings: genetic background: wild type; temperature: 30 C
Experimental: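 MPS profiling in S. cerevisiae of the yeast C-terminome library: the last 12 aa of each annotated ORF are fused to the C-terminus of a sfGFP-mCherry timer, after a GGGS linker. Cells are FACS-sorted into 8 mCherry/sfGFP bins and deep-sequenced. PSI runs from 0 (unstable) to 1 (stable); wild type and das1Δ backgrounds, two technical replicates each.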

Compared with CLILSCSWWILN [YJR020W C-terminal 12 aa], CLSDIAKVLRNQ [PBP4 C-terminal 12 aa] is higher in protein stability index: 0.1518 ± 0.00025 for the first, 0.577 ± 0.015 for the second.

CPLCRSEIPFRR [RKR1 C-terminal 12 aa] and CRESNLKLIVSG [ARR2 C-terminal 12 aa] are within error of each other in protein stability index: 0.724 ± 0.039 for the first, 0.712 ± 0.016 for the second.

CSGMKPISELQQ [RSM28 C-terminal 12 aa] and CSPVLFSLLNIA [LCB3 C-terminal 12 aa] are within error of each other in protein stability index: 0.682 ± 0.017 for the first, 0.674 ± 0.087 for the second.

DAKFMMQASCSS [FMP40 C-terminal 12 aa] and DASVEQNILAVL [RQT4 C-terminal 12 aa] are within error of each other in protein stability index: 0.682 ± 0.035 for the first, 0.6904 ± 0.0037 for the second.

DAVAEEVKKILA [LEU2 C-terminal 12 aa] and DCLEGMLELEKL [DSS1 C-terminal 12 aa] are within error of each other in protein stability index: 0.68 ± 0.0084 for the first, 0.677 ± 0.041 for the second.

DDDNEDVEMSDA [NOC2 C-terminal 12 aa] and DDEDEEDDDFKE [CHZ1 C-terminal 12 aa] are within error of each other in protein stability index: 0.693 ± 0.057 for the first, 0.671 ± 0.017 for the second.

DDYAQYLDQDSD [MAK21 C-terminal 12 aa] and DEDEDDSTTKEP [GLC8 C-terminal 12 aa] are within error of each other in protein stability index: 0.671 ± 0.011 for the first, 0.7 ± 0.026 for the second.

Going from DEDLWEEQEVCP [YGR017W C-terminal 12 aa] to “DELSLRPATERI [YGR038C-E C-terminal 12 aa]”, the protein stability index falls from 0.709 ± 0.011 to 0.571.

DFNDSSNLKKTR [CLN3 C-terminal 12 aa] and DGEFVVSDLRLR [YOR283W C-terminal 12 aa] are within error of each other in protein stability index: 0.693 ± 0.039 for the first, 0.682 ± 0.015 for the second.

DGGVKRIRVWGY [DAL2 C-terminal 12 aa] and DGVENTPVESQQ [NMD3 C-terminal 12 aa] are within error of each other in protein stability index: 0.703 ± 0.054 for the first, 0.707 ± 0.0061 for the second.

First: DIFSRFSIILKC [YPR136C C-terminal 12 aa]
Second: DIRAHLAEYYSF [PAU7 C-terminal 12 aa]
The protein stability index of the first is lower: 0.281 ± 0.012 for the first, 0.687 ± 0.011 for the second.

DKLGFLDRRRNE [COI1 C-terminal 12 aa] and DKRNLLEILDFS [RRT13 C-terminal 12 aa] are within error of each other in protein stability index: 0.668 ± 0.043 for the first, 0.695 ± 0.029 for the second.

DKSCIDIRSIIH [YAP5 C-terminal 12 aa] and DLEDEIEMEDVV [TFG2 C-terminal 12 aa] are within error of each other in protein stability index: 0.726 ± 0.041 for the first, 0.711 ± 0.046 for the second.

First: DLLNKESEYLNI [FAR11 C-terminal 12 aa]
Second: DLRCLKYKYKNA [YGR016W C-terminal 12 aa]
The protein stability index of the first is higher: 0.755 ± 0.061 for the first, 0.348 ± 0.028 for the second.

DLVAQQVVQDGH [MYO2 C-terminal 12 aa] and DMMMLFGAEGDE [TAF7 C-terminal 12 aa] are the same in protein stability index: 0.707 ± 0.019 for the first, 0.707 ± 0.027 for the second.

Compared with DNFINSVKLNFR [SEC10 C-terminal 12 aa], “DPFDTNLSIKLS [YMR075C-A C-terminal 12 aa]” is lower in protein stability index: 0.734 ± 0.022 for the first, 0.6827 ± 0.0066 for the second.

DQTRDFGTSMEL [FOB1 C-terminal 12 aa] and DTVLRKFADYKI [MPS1 C-terminal 12 aa] are within error of each other in protein stability index: 0.712 ± 0.0086 for the first, 0.679 ± 0.032 for the second.

Going from DVKLLPPPKKRN [NUC1 C-terminal 12 aa] to EAASDEHFSRVV [YGL185C C-terminal 12 aa], the protein stability index rises from 0.6883 ± 0.0014 to 0.733 ± 0.021.

“ECPRFSNKHGRN [YDR169C-A C-terminal 12 aa]” and EDDEDGSGVEYD [RTT106 C-terminal 12 aa] are within error of each other in protein stability index: 0.681 ± 0.014 for the first, 0.7 ± 0.062 for the second.

EDKDSESFSEVC [YCG1 C-terminal 12 aa] and EDNDYELIFMNV [PML1 C-terminal 12 aa] are within error of each other in protein stability index: 0.705 ± 0.011 for the first, 0.712 ± 0.019 for the second.

EDVDEDTTPFNV [YTP1 C-terminal 12 aa] and EDVEVPFITIHL [UBA1 C-terminal 12 aa] are within error of each other in protein stability index: 0.684 ± 0.013 for the first, 0.683 ± 0.017 for the second.

First: EDVKEEESKVGA [IOC4 C-terminal 12 aa]
Second: EDYAYWGNRQLY [PER1 C-terminal 12 aa]
The protein stability index of the first is lower: 0.664 ± 0.0082 for the first, 0.743 ± 0.038 for the second.

EEDEEDEENEEQ [UBX2 C-terminal 12 aa] and EEGPFKADHYRY [SAH1 C-terminal 12 aa] are within error of each other in protein stability index: 0.693 ± 0.043 for the first, 0.694 ± 0.033 for the second.

“EEQINGKRKRKD [YJR107C-A C-terminal 12 aa]” and EFIFRESRKHNV [ERP3 C-terminal 12 aa] are within error of each other in protein stability index: 0.674 ± 0.022 for the first, 0.71 ± 0.061 for the second.

Compared with EFSTLFDDYKDN [YRR1 C-terminal 12 aa], EGEISKGAENAT [YDR444W C-terminal 12 aa] is lower in protein stability index: 0.767 ± 0.022 for the first, 0.689 ± 0.011 for the second.

EHKLGNTKYFED [ARP5 C-terminal 12 aa] and EILGTDEPTVRT [PGM1 C-terminal 12 aa] are within error of each other in protein stability index: 0.687 ± 0.023 for the first, 0.7 ± 0.014 for the second.

EISNRDENSIPE [MUB1 C-terminal 12 aa] and EKAERRKLSQGR [QRI5 C-terminal 12 aa] are within error of each other in protein stability index: 0.677 ± 0.026 for the first, 0.6807 ± 0.002 for the second.

Compared with EKANDIGFHKYR [RPS29B C-terminal 12 aa], EKIKKILSELKK [NKP1 C-terminal 12 aa] is higher in protein stability index: 0.648 ± 0.027 for the first, 0.715 ± 0.021 for the second.

EKKSKKEKKEKK [NOP58 C-terminal 12 aa] and EKLILAKKDQPN [IST3 C-terminal 12 aa] are within error of each other in protein stability index: 0.717 ± 0.04 for the first, 0.709 ± 0.046 for the second.

EKMLAAPHQNKV [SPR28 C-terminal 12 aa] and EKPKKKEVEKTA [NOG2 C-terminal 12 aa] are within error of each other in protein stability index: 0.6924 ± 0.001 for the first, 0.688 ± 0.018 for the second.

EKWASQFGSSGS [SAP1 C-terminal 12 aa] and ELASYILKELNL [KIN2 C-terminal 12 aa] are within error of each other in protein stability index: 0.685 ± 0.014 for the first, 0.702 ± 0.064 for the second.

ELKKIILESSMK [EXO5 C-terminal 12 aa] and ELLYIIDHLSEL [BTS1 C-terminal 12 aa] are within error of each other in protein stability index: 0.68 ± 0.011 for the first, 0.67 ± 0.015 for the second.

EMKHSLFRNPFH [PIG2 C-terminal 12 aa] and EPLKESIFNQLK [MRPL23 C-terminal 12 aa] are the same in protein stability index: 0.678 ± 0.015 for the first, 0.678 ± 0.059 for the second.

EQGGEGVQCASQ [YDJ1 C-terminal 12 aa] and ERDNWWVVAQKR [TRM9 C-terminal 12 aa] are within error of each other in protein stability index: 0.69 ± 0.045 for the first, 0.723 ± 0.012 for the second.

ERINFVCETYGL [AIM14 C-terminal 12 aa] and ERNPSQRPQRRY [RPS10B C-terminal 12 aa] are within error of each other in protein stability index: 0.7 ± 0.027 for the first, 0.679 ± 0.066 for the second.

ERPQDWFEDIGE [FCY1 C-terminal 12 aa] and ESFEKQGKIIYN [MOB2 C-terminal 12 aa] are within error of each other in protein stability index: 0.686 ± 0.017 for the first, 0.685 ± 0.042 for the second.

ESSKDVKRNNKD [SDH7 C-terminal 12 aa] and ETARNLAEYNGE [SEC72 C-terminal 12 aa] are within error of each other in protein stability index: 0.702 ± 0.03 for the first, 0.728 ± 0.0056 for the second.

ETGHISKDCPKA [GIS2 C-terminal 12 aa] and ETNFWTAAMEYE [THI22 C-terminal 12 aa] are within error of each other in protein stability index: 0.695 ± 0.013 for the first, 0.701 ± 0.014 for the second.

Compared with EVPVNTADRGRL [PMU1 C-terminal 12 aa], EWSSGIPHPEMI [ARA2 C-terminal 12 aa] is lower in protein stability index: 0.76 ± 0.071 for the first, 0.667 ± 0.018 for the second.

First: EYEPFVMYIINL [VMA5 C-terminal 12 aa]
Second: EYMIERCRGHVL [YPL108W C-terminal 12 aa]
The protein stability index of the first is lower: 0.545 ± 0.0069 for the first, 0.753 ± 0.04 for the second.

First: FANKSSSGGDEV [YIL089W C-terminal 12 aa]
Second: FASPTLSFFFPI [YGL149W C-terminal 12 aa]
The protein stability index of the first is lower: 0.672 ± 0.028 for the first, 0.7061 ± 0.002 for the second.
